This is an account of results in the RNAGym collection of RNA variant scans (doi:10.1093/molbev/msab373).

Sequences and labels used below:
B1: Azoarcus group I ribozyme (parent)
chain: GUGCCUUGCGCCGGGAAACCACGCAAGGGAUGGUGUCAAAUUCGGCGAAACCUAAGCGCCCGCCCGGGCGUAUGGCAACGCCGAGCCAAGCUUCGGCGCCUGCGCCGAUGAAGGUGUAGAGACUAGACGGCACCCACCUAAGGCAAACGCUAUGGUGAAGGCAUAGUCCAGGGAGUGGCGAAAGUCACACAAACCGG

Variants of B1 are the subject of this data set. As to the kind of experiment: reverse-splicing fitness (ratio to wild type); higher = more active; in vitro selection; Mg2+ level not given. In short, it runs like this:
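An in vitro group I ribozyme library with randomized positions was T7-transcribed and gel-purified. In triplicate, 10 pmol RNA in EPPS pH 7.5 was reacted with 50 pmoles of a 30-nt RNA substrate for 1 h at 37 °C across several added MgCl2 levels (1–48 mM), then stopped with EDTA. Products were reverse transcribed from a substrate-complementary primer, PCR-amplified and sequenced (HiSeq 4000). Fitness is a variant's read proportion after selection over that before, normalised to wild type.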
On to GUGCCUUGCGCCGGGAAACCACGCAAGGGAUGGUGUCAAAUUCGGCGAAACCUAAGCGCCCGCCCGGGCGUAUGGCAACGCUGAGCCAAGCUUCGGCGCCUGCGCCGAUGGAGGUGUAGAGACUAGACGGCACCCACCUAAGGCAAACGGUAUGGUGAAGGCAUAGUCAAGGGAGUGGCGAAAGUCACACAAACCGG [C82U A111G C150G C169A], for which the reverse-splicing fitness came to 0.00812. Consider GUGCCUUGCGCCGGGAAACCACGCAAGGGAUGGUGUCAAAUUCGGCGAAACCUAAGCGCCCGCCCGGGCGUAUGGCAACGCAGAGCCAAGCUUCGGCGCCUGCGCCGAUGGAGGUGUAGUGACUAGACGGCACCCACCUAAGGCAAACGCUAUGGUGAAGGCAUAGUCGAGGGAGUGGCGAAAGUCACACAAACCGG [C82A A111G A120U C169G], for which the reverse-splicing fitness was 0.00374. The same measure for GUGCCUUGCGCCGGGAAACCACGCAAGGGAUGGUGUCAAAUUCGGCGAAACCUAAGCGCCCGCCCGGGCGUAUGGCAACGCAGAGCCAAGCUUCGGCGCCUGCGCCGAUGGAGGUGUAGGGACUAGACGGCACCCACCUAAGGCGAACGUUAUGGUGAAGGCAUAGUCUAGGGAGCGGCGAAAGUCACACAAACCGG [C82A A111G A120G A145G C150U C169U U176C]: 0.0165. The same measure for GUGCCUUGCGCCGGGAAACCACGCAAGGGAUGGUGUCAAAUUCGGCGAAACCUAAGCGCCCGCCCGGGCGUAUGGCAACGCGGAGCCAAGCUUCGGCGCCUGCGCCGAUGCAGGUGUAGAGACUAGACGGCACCCACCUAAGGCCAACGAUAUGGUGAAGGCAUAGUCAAGGGAGGGGCGAAAGUCACACAAACCGG [C82G A111C A145C C150A C169A U176G]: 0.00782; for GUGCCUUGCGCCGGGAAACCACGCAAGGGAUGGUGUCAAAUUCGGCGAAACCUAAGCGCCCGCCCGGGCGUAUGGCAACGCGGAGCCAAGCUUCGGCGCCUGCGCCGAUGCAGGUGUAGGGACUAGACGGCACCCACCUAAGGCGAACGUUAUGGUGAAGGCAUAGUCGAGGGAGAGGCGAAAGUCACACAAACCGG [C82G A111C A120G A145G C150U C169G U176A]: 0.0133. Then GUGCCUUGCGCCGGGAAACCACGCAAGGGAUGGUGUCAAAUUCGGCGAAACCUAAGCGCCCGCCCGGGCGUAUGGCAACGCUGAGCCAAGCUUCGGCGCCUGCGCCGAUGAAGGUGUAGAGACUAGACGGCACCCACCUAAGGCCAACGCUAUGGUGAAGGCAUAGUCGAGGGAGUGGCGAAAGUCACACAAACCGG [C82U A145C C169G], with 0.00966; and GUGCCUUGCGCCGGGAAACCACGCAAGGGAUGGUGUCAAAUUCGGCGAAACCUAAGCGCCCGCCCGGGCGUAUGGCAACGCCGAGCCAAGCUUCGGCGCCUGCGCCGAUGGAGGUGUAGAGACUAGACGGCACCCACCUAAGGCGAACGCUAUGGUGAAGGCAUAGUCUAGGGAGCGGCGAAAGUCACACAAACCGG [A111G A145G C169U U176C], with 0.0655. As to GUGCCUUGCGCCGGGAAACCACGCAAGGGAUGGUGUCAAAUUCGGCGAAACCUAAGCGCCCGCCCGGGCGUAUGGCAACGCCGAGCCAAGCUUCGGCGCCUGCGCCGAUGAAGGUGUAGAGACUAGACGGCACCCACCUAAGGCGAACGUUAUGGUGAAGGCAUAGUCGAGGGAGAGGCGAAAGUCACACAAACCGG [A145G C150U C169G U176A], the reverse-splicing fitness was determined as 0.0615. As to GUGCCUUGCGCCGGGAAACCACGCAAGGGAUGGUGUCAAAUUCGGCGAAACCUAAGCGCCCGCCCGGGCGUAUGGCAACGCUGAGCCAAGCUUCGGCGCCUGCGCCGAUGUAGGUGUAGCGACUAGACGGCACCCACCUAAGGCUAACGCUAUGGUGAAGGCAUAGUCUAGGGAGCGGCGAAAGUCACACAAACCGG [C82U A111U A120C A145U C169U U176C], the reverse-splicing fitness stood at 0.0136. The same measure for GUGCCUUGCGCCGGGAAACCACGCAAGGGAUGGUGUCAAAUUCGGCGAAACCUAAGCGCCCGCCCGGGCGUAUGGCAACGCCGAGCCAAGCUUCGGCGCCUGCGCCGAUGUAGGUGUAGCGACUAGACGGCACCCACCUAAGGCAAACGAUAUGGUGAAGGCAUAGUCGAGGGAGUGGCGAAAGUCACACAAACCGG [A111U A120C C150A C169G]: 0.00847. Then GUGCCUUGCGCCGGGAAACCACGCAAGGGAUGGUGUCAAAUUCGGCGAAACCUAAGCGCCCGCCCGGGCGUAUGGCAACGCAGAGCCAAGCUUCGGCGCCUGCGCCGAUGUAGGUGUAGAGACUAGACGGCACCCACCUAAGGCUAACGAUAUGGUGAAGGCAUAGUCAAGGGAGGGGCGAAAGUCACACAAACCGG [C82A A111U A145U C150A C169A U176G], with 0.00765; and GUGCCUUGCGCCGGGAAACCACGCAAGGGAUGGUGUCAAAUUCGGCGAAACCUAAGCGCCCGCCCGGGCGUAUGGCAACGCAGAGCCAAGCUUCGGCGCCUGCGCCGAUGAAGGUGUAGGGACUAGACGGCACCCACCUAAGGCCAACGUUAUGGUGAAGGCAUAGUCCAGGGAGAGGCGAAAGUCACACAAACCGG [C82A A120G A145C C150U U176A], with 0.0106.

Take GUGCCUUGCGCCGGGAAACCACGCAAGGGAUGGUGUCAAAUUCGGCGAAACCUAAGCGCCCGCCCGGGCGUAUGGCAACGCGGAGCCAAGCUUCGGCGCCUGCGCCGAUGCAGGUGUAGCGACUAGACGGCACCCACCUAAGGCCAACGUUAUGGUGAAGGCAUAGUCUAGGGAGUGGCGAAAGUCACACAAACCGG [C82G A111C A120C A145C C150U C169U]: the reverse-splicing fitness came to 0.011. In the case of GUGCCUUGCGCCGGGAAACCACGCAAGGGAUGGUGUCAAAUUCGGCGAAACCUAAGCGCCCGCCCGGGCGUAUGGCAACGCGGAGCCAAGCUUCGGCGCCUGCGCCGAUGGAGGUGUAGUGACUAGACGGCACCCACCUAAGGCUAACGGUAUGGUGAAGGCAUAGUCGAGGGAGUGGCGAAAGUCACACAAACCGG [C82G A111G A120U A145U C150G C169G], the reverse-splicing fitness worked out at 0.003.

As to GUGCCUUGCGCCGGGAAACCACGCAAGGGAUGGUGUCAAAUUCGGCGAAACCUAAGCGCCCGCCCGGGCGUAUGGCAACGCAGAGCCAAGCUUCGGCGCCUGCGCCGAUGUAGGUGUAGAGACUAGACGGCACCCACCUAAGGCUAACGAUAUGGUGAAGGCAUAGUCCAGGGAGGGGCGAAAGUCACACAAACCGG [C82A A111U A145U C150A U176G], the reverse-splicing fitness is 0.00989.
